According to a protein production outcome set (Wang et al. 2014):

Experiment: label from the status in PepcDB records

Row | Sequence | protein production
1 | MLLNKYFLANRNINFIVMALLFSSSYISASSFISGPSAVYKYGLSFILLATIQIPTTLIVFIIVGQRLNRESKKINAINIIDYIRHRYESDFLALMSGFVLIFFSMFLISAQLIGGAKLIEVFWGIDYVVGLTFFAFLVFIYVFFGGFKAVAYTDLIQGFLMLVSSVILFSKMLDLGGGINNLFKTATSSLDKSLLLPSNADLKPQYIISFWILIGIGILGQPQIINNFIAFKDENAIKFSLPISTFIISFLIVLMHLIGFFAIILFPDLSPNDKVVLNVALKVLNPFSCFMFFIGLLSAIMSTVDSNLLLITSVLIKSIFIYKEDLKEDVKIGRIIMISNIFFILIILIFSLFPPNFLFFINIFAFGALEVSFFPIIVFGLYLNFVSKIAAFASMFLGLIFYLSILFFGLNIWFFHPVFPSFFVSIFTFLVVNFFCKKNSKVC | failed
2 | MSLDVLTNFAQIQSFTALAIGIMIGLAALGAGLGLAIMAGKFLESAARQPELIPLLQVRMFIAAGLIDAAFIISVAVGLLLAFANPLSSTLLVAVSKALAG | failed
3 | MRIFIAFEGSFEAFDVAAHTSVGAIKQMVKDYFHIPLSEDKQGRWYLELTYAGAALKNNWSLSDVGISFCSTLKCFVKKEDKPTLYVFNAVTQETMAIKENMSILDRKVSDLRMLVTLSCGFPVSVYCLRTPAGLEMYDCNTLKDYQTDIGTTLRLDVWDGWKEFLMGCLLGQKPKVQRYLSKEGPVLKYQKRVALYIAAFHGHTELTEWALKQGAQPHEAVGVHPCRAWCHEALHTDVSNCPIHAAAEAGQLLILKAFVNFSVLCLECKNAAGQSPLAIASKHQHKDCVLYLLSKIWSTVSFLKLSVPMRIYIKIKQWILRAQTRRCHKSQPSRARVSGAKVGDTVMVDGFTKPKMTSKSWYKAEDKSWHTAQSKLPPCKQQPSRKPIGSLPMSQHDTKKQIFTFPSLVDAKNFSEVQSYQQENQKKIAAPARKEKNIKNPYLPQVPLPPVSRVHYAHPQFYCTPPSGDCLLRSLFKSFSEHSGRTPRENAIYCLAVASAFKEKRWLQQLEIARVLAKRSISNLTVKGGPAKCENYPESVL | failed
4 | STIIYIKDLNGRYTLVNNKYCEVLGIERRKIIGAMDFELFQPPLAELYQQNDQRANNSHDALHFEEPIPTPRGEIIYHMTKFDIRDDE | failed
5 | MHCLIHVPELMNVKGIGGFENLCDLELLTSYLEEVDLIMTNHSTKRSSRSFKISRDHSTTRSSRAHHHFTSPLDPERSSNSITPLDCILDDKLQSLLHSALNQTLEHKEEKKIPAIHSSSHSTTLVEYSS | failed
6 | MEFLDWKFIFIIITFAFIGLICIFKRSKIGLTAASVGIIGSLILWGFFKVSIKVRNFLDGVGLSFKDLLNFLFVVITAIIAFLVIFLFLKAFNNFGSKIRKR | failed
7 | MAFNGAMSVGAQISDAVILAHSPKSCTHIMYQTISSAGRRTLFERGALLPVSLAPNLESTDMGEAEMIFGGMEKLEEKILELKARQPRAIVVVSACPAGIIGDDIGRTRRFSEPGLPVVTLKTDGNLAGDYLQGMLMAYTSLARQVIRLEHHHHHH | failed
8 | MQNIARNISNRLAGFVYRQMRKAHANANSTVGYSVNANGALLAGCVIDCRSGKSDGRVFFGKDSVLSCRIVLERDVGTVHIGNDSYVGGSQIICADHIEIGNNVLISWGCTIVDHDSHSVDWRNRAEDVRKWREGLLSGGLEKASESKDWAVVEKAPIKIGDKTWLGMNVTVLKGITIGEGAVVAAGSVVTKDVDPWTLVAGNPARVIKELPKS | failed
9 | MWESKFVKEGLTFDDVLLVPAKSDVLPREVSVKTVLSESLQLNIPLISAGMDTVTEADMAIAMARQGGLGIIHKNMSIEQQAEQVDKVKRSESGVISDPFFLTPEHQVYDAEHLMGKYRISGVPVVNNLDERKLVGIITNRDMRFIQDYSIKISDVMTKEQLITAPVGTTLSEAEKILQKYKIEKLPLVDNNGVLQGLITIKDIEKVIEFPNSAKDKQGRLLVGAAVGVTADAMTRIDALVKASVDAIVLDTAHGHSQGVIDKVKEVRAKYPSLNIIAGNVATAEATKALIEAGANVVKVGIGPGSICTTRVVAGVGVPQLTAVYDCATEARKHGIPVIADGGIKYSGDMVKALAAGAHVVMLGSMFAGVAESPGETEIYQGRQFKVYRGMGSVGAMEKGSKDRYFQEGNKKLVPEGIEGRVPYKGPLADTVHQLVGGLRAGMGYCGAQDLEFLRENAQFIRMSGAGLLESHPHHVQITKEAPNYSL | not failed
10 | MTEIERKFLVATFPDGELHAVPLRQGYLTTPTDSIELRLRQQGTEYFMTLKSEGGLSRQEYEIQIDVTQFEMLWPATEGRRVEKTRYSGKLPDGQLFELDVFAGHLSPLMLVEVEFLSEDAAQAFIPPPWFGEEVTEDKRYKNKALALSIP | not failed
